Laboratory results as given in article PMC11784217.

B1: wild-type US28 receptor with a C-terminal natural peptide tag (US28-NP) [human cytomegalovirus (HCMV)] / LgBiT-Gαq [not stated] (parent)
chain 1: MTPTTTTAELTTEFDYDEDATPCVFTDVLNQSKPVTLFLYGVVFLFGSIGNFLVIFTITWRRRIQCSGDVYFINLAAADLLFVCTLPLWMQYLLDHNSLASVPCTLLTACFYVAMFASLCFITEIALDRYYAIVYMRYRPVKQACLFSIFWWIFAVIIAIPHFMVVTKKDNQCMTDYDYLEVSYPIILNVELMLGAFVIPLSVISYCYYRISRIVAVSQSRHKGRIVRVLIAVVLVFIIFWLPYHLTLFVDTLKLLKWISSSCEFERSLKRALILTESLAFCHCCLNPLLYVFVGTKFRQELHCLLAEFRQRLFSRDVSWYHSMSFSRRSSPSRRETSSDTLSDEVCRVSQIIP
chain 2: MTLESIMACCLSEEAKEARRINDEIERQLRRDKRDARRELKLLLLGTGESGKSTFIKQMRIIHGSGYSDEDKRGFTKLVYQNIFTAMQAMIRAMDTLKIPYKYEHNKAHAQLVREVDVEKVSAFENPYVDAIKSLWNDPGIQECYDRRREYQLSDSTKYYLNDLDRVADPAYLPTQQDVLRVRVPTTGIIEYPFDLQSVIFRMVDVGGQRSERRKWIHCFENVTSIMFLVALSEYDQVLVESDNENRMEESKALFRTIITYPWFQNSSVILFLNKKDLLEEKIMYSHLVDYFPEYDGPQRDAQAAREFILKMFVDLNPDSDKIIYSHFTCATDTENIRFVFAAVKDTILQLNLKEYNLV
B2: wild-type US28 receptor with a C-terminal natural peptide tag (US28-NP) [human cytomegalovirus (HCMV)] / LgBiT-Gα12 [not stated] (parent)
chain 1: B1 chain 1
chain 2: MSGVVRTLSRCLLPAEAGGARERRAGSGARDAEREARRRSRDIDALLARERRAVRRLVKILLLGAGESGKSTFLKQMRIIHGREFDQKALLEFRDTIFDNILKGSRVLVDARDKLGIPWQYSENEKHGMFLMAFENKAGLPVEPATFQLYVPALSALWRDSGIREAFSRRSEFQLGESVKYFLDNLDRIGQLNYFPSKQDILLARKATKGIVEHDFVIKKIPFKMVDVGGQRSQRQKWFQCFDGITSILFMVSSSEYDQVLMEDRRTNRLVESMNIFETIVNNKLFFNVSIILFLNKMDLLVEKVKTVSIKKHFPDFRGDPHRLEDVQRYLVQCFDRKRRNRSKPLFHHFTTAIDTENVRFVFHAVKDTILQENLKDIMLQ

Variants of: B1
Test: NanoBiT nLuc complementation assay in live HEK-293 cells (Nano-Glo live cell assay), area under the curve
Conditions: with LgBiT-Gαq, 18 hours post-transfection media exchanged with serum-free DMEM, 6 hours later luciferase activity monitored for 60 minutes, parent: 2.9e+07, read off a plot

Variant | response (Arbitrary Units)
chain 1 K223A | 1.7e+07
chain 1 S218A | 1.8e+07
chain 1 S220A | 3e+07
chain 1 D128A R129A Y130A | 6e+06
chain 1 R225A | 1.6e+07

Variants of: B2
Test: as above
Conditions: with LgBiT-Gα12, 18 hours post-transfection media exchanged with serum-free DMEM, 6 hours later luciferase activity monitored for 60 minutes, parent: 2.2e+07, read off a plot

Variant | response (Arbitrary Units)
chain 1 D128A R129A Y130A | 2.8e+06
chain 1 S218A | 6.8e+06
chain 1 S220A | 1.7e+07
chain 1 K223A | 8.9e+06
chain 1 R225A | 1.1e+07
